# Test results as given in patent publication US12269859B2, “Synthetic immune receptors and methods of use thereof” (Angeles Therapeutics, Inc., priority 2016, dated 2025).
# B1: 041816-A03 (protein)
# chain: MALPVTALLLPLALLLHAARPDIQMTQSPSSLSASLGERVSLTCRATQELSGYLSWLQQKPDGTIKRLIYAASTLDSGVPKRFSGNRSGSDYSLTISSLESEDFADYYCLQYAIYPYTFGGGTKLEIKLEDLKNVFPPEVAVFEPSEAEISHTQKATLVCLATGFYPDHVELSWWVNGKEVHSGVSTDPQPLKEQPALNDSRYCLSSRLRVSATFWQNPRNHFRCQVQFYGLSENDEWTQDRAKPVTQIVSAEAWGRADCGFTSESYQQGVLSATILYEILLGKATLYAVLVSALVLMAMVKRKDSRGRAKRSGSGATNFSLLKQAGDVEENPGPTSMDWIWRILFLVGAATGAHSFEEVQLQQSGPELVKPGASVKMSCKASGYTFTSYFIHWVKQKPGQGLEWIGFINPYNDGSKYNEKFKGKATLTSDKSSSTAYMELSSLTSEDSAVYYCTRDDGYYGYAMDYWGQGTSVTVSSTREQKLISEEDGSGTPFPSLAPPIMLLVDGKQQMVVVCLVLDVAPPGLDSPIWFSAGNGSALDAFTYGPSPATDGTWTNLAHLSLPSEELASWEPLVCHTGPGAEGHSRSTQPMHLSGEASTARTCPQEPLRGTPGGALWLGVLRLLLFKLLLFDLLLTCSCLCDPAGPLPSPATTTRLRALGSHRLHPATETGGREATSSPRPQPRDRRWGDTPPGRKPGSPVRAKRSGSGVKQTLNFDLLKLAGDVESNPGPSRGHMTEYKPTVRLATRDDVPRAVRTLAAAFADYPATRHTVDPDRHIERVTELQELFLTRVGLDIGKVWVADDGAAVAVWTTPESVEAGAVFAEIGPRMAELSGSRLAAQQQMEGLLAPHRPKEPAWFLATVGVSPDHQGKGLGSAVVLPGVEAAERAGVPAFLETSAPRNLPFYERLGFTVTADVEVPEGPRTWCMTRKPGA
# modifications: Polynucleotide encoding a Synthetic Immune Receptor (SIR)
# B2: 041816-C01 (protein)
# chain: MALPVTALLLPLALLLHAARPDTIVLTQSPASLAVSLGQRATISCRASESVDSYGNSFMHWYQQKPGQPPKLLIYLASNLESGVPARFSGSGSRTDFTLTIDPVEADDAATYYCQQNNYDPWTFGGGTKLEIKLEGKPIPNPLLGLDSTGSGEDLKNVFPPEVAVFEPSKAEIAHTQKATLVCLATGFYPDHVELSWWVNGKEVHSGVCTDPQPLKEQPALNDSRYCLSSRLRVSATFWQNPRNHFRCQVQFYGLSENDEWTQDRAKPVTQIVSAEAWGRADCGITSASYHQGVLSATILYEILLGKATLYAVLVSALVLMAMVKRKDSRGRAKRSGSGATNFSLLKQAGDVEENPGPTSMDWIWRILFLVGAATGAHSFEEVQLQQSGPELVKPGASVKMSCKASGYTFTSYVMHWVKQKPGQGLEWIGYINPYNDGTKYNEKFKGKATLTSDTSSSTAYMELNSLTSEDSAVYFCARPIYFDNDYFDYWGQGTTLKVSSTREQKLISEEDGSGTPFPSLAPPIMLLVDGKQQMVVVCLVLDVAPPGLDSPIWFSAGNGSALDAFTYGPSPATDGTWTNLAHLSLPSEELASWEPLVCHTGPGAEGHSRSTQPMHLSGEASTARTCPQEPLRGTPGGALWLGVLRLLLFKLLLFDLLLTCSCLCDPAGPLPSPATTTRLRALGSHRLHPATETGGREATSSPRPQPRDRRWGDTPPGRKPGSPVRAKRSGSGVKQTLNFDLLKLAGDVESNPGPSRGHMTEYKPTVRLATRDDVPRAVRTLAAAFADYPATRHTVDPDRHIERVTELQELFLTRVGLDIGKVWVADDGAAVAVWTTPESVEAGAVFAEIGPRMAELSGSRLAAQQQMEGLLAPHRPKEPAWFLATVGVSPDHQGKGLGSAVVLPGVEAAERAGVPAFLETSAPRNLPFYERLGFTVTADVEVPEGPRTWCMTRKPGA
# modifications: Polynucleotide encoding a Synthetic Immune Receptor (SIR)
# B3: 092216-G01 (protein)
# chain: MALPVTALLLPLALLLHAARPLEGKPIPNPLLGLDSTGSGEDLKNVFPPEVAVFEPSKAEIAHTQKATLVCLATGFYPDHVELSWWVNGKEVHSGVCTDPQPLKEQPALNDSRYCLSSRLRVSATFWQNPRNHFRCQVQFYGLSENDEWTQDRAKPVTQIVSAEAWGRADCGITSASYHQGVLSATILYEILLGKATLYAVLVSALVLMAMVKRKDSRGRAKRSGSGATNFSLLKQAGDVEENPGPTSTMALPVTALLLPLALLLHAARPDIQMTQSPSSLSASLGERVSLTCRATQELSGYLSWLQQKPDGTIKRLIYAASTLDSGVPKRFSGNRSGSDYSLTISSLESEDFADYYCLQYAIYPYTFGGGTKLEIKGGGGSGGGGSGGGGSEVQLQQSGPELVKPGASVKMSCKASGYTFTSYFIHWVKQKPGQGLEWIGFINPYNDGSKYNEKFKGKATLTSDKSSSTAYMELSSLTSEDSAVYYCTRDDGYYGYAMDYWGQGTSVTVSSTREQKLISEEDGSGIQNPDPAVYQLRDSKSSDKSVCLFTDFDSQTNVSQSKDSDVYITDKCVLDMRSMDFKSNSAVAWSNKSDFACANAFNNSIIPEDTFFPSSDVPCDVKLVEKSFETDTNLNFQNLSVIGFRILLLKVAGFNLLMTLRLWSSRAKRSGSGVKQTLNFDLLKLAGDVESNPGPSRGHMTEYKPTVRLATRDDVPRAVRTLAAAFADYPATRHTVDPDRHIERVTELQELFLTRVGLDIGKVWVADDGAAVAVWTTPESVEAGAVFAEIGPRMAELSGSRLAAQQQMEGLLAPHRPKEPAWFLATVGVSPDHQGKGLGSAVVLPGVEAAERAGVPAFLETSAPRNLPFYERLGFTVTADVEVPEGPRTWCMTRKPGA
# modifications: Synthetic Immune Receptor (SIR)
# B4: 091616-Z01 (protein)
# chain: MALPVTALLLPLALLLHAARPDIVMTQSPDSLAVSLGERATINCKSSQSILYSSNQKNYLAWYQQKPGQSPKLLIYWASTRESGVPDRFSGSGSGTDFTLTISSLQAEDVAVYYCHQYISSYTFGQGTKLEIKLEEQKLISEEDLGSGEDLKNVFPPEVAVFEPSKAEIAHTQKATLVCLATGFYPDHVELSWWVNGKEVHSGVCTDPQPLKEQPALNDSRYCLSSRLRVSATFWQNPRNHFRCQVQFYGLSENDEWTQDRAKPVTQIVSAEAWGRADCGITSASYHQGVLSATILYEILLGKATLYAVLVSALVLMAMVKRKDSRGRAKRSGSGATNFSLLKQAGDVEENPGPTSMDWIWRILFLVGAATGAHSFEQVQLVQSGAEVKKPGASVKVSCKASGYTFASQWMHWMRQAPGQGLEWIGWINPGNVNTKYNEKFKGRATLTVDTSTNTAYMELSSLRSEDTAVYYCARSTWYRPLDYWGQGTLVTVSSTREQKLISEEDLGSGIQNPDPAVYQLRDSKSSDKSVCLFTDFDSQTNVSQSKDSDVYITDKCVLDMRSMDFKSNSAVAWSNKSDFACANAFNNSIIPEDTFFPSSDVPCDVKLVEKSFETDTNLNFQNLSVIGFRILLLKVAGFNLLMTLRLWSSRAKRSGSGVKQTLNFDLLKLAGDVESNPGPSRGHMTEYKPTVRLATRDDVPRAVRTLAAAFADYPATRHTVDPDRHIERVTELQELFLTRVGLDIGKVWVADDGAAVAVWTTPESVEAGAVFAEIGPRMAELSGSRLAAQQQMEGLLAPHRPKEPAWFLATVGVSPDHQGKGLGSAVVLPGVEAAERAGVPAFLETSAPRNLPFYERLGFTVTADVEVPEGPRTWCMTRKPGA
# modifications: Synthetic Immune Receptor (SIR)
# System: target antigen-expressing cell line
# Experiment: Jurkat NFAT-GFP assay, coculture with target cell lines expressing the respective target antigen (summary Table 10A)
# Assay type: cell-based, human
# Design: key: The signs +/−, +, 2+ etc. after the name of the cell lines indicate the relative degree of positivity on the Jurkat-NFAT-GFP assay as measured by the % GFP positive cells; +: relative degree of positivity on the Jurkat-NFAT-GFP assay as measured by the % GFP positive cells; 2+: relative degree of positivity on the Jurkat-NFAT-GFP assay as measured by the % GFP positive cells
# How it was run: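 Readout is % GFP+ cells by FACS, graded +/− to 2+ relative to parental reporter cells. Jurkat-NFAT-GFP cells stably transduced with SIR constructs (puromycin-selected) were mixed with target-antigen-expressing cell lines at roughly 1:2 effector:target and cocultured ~4–18 h.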
molecule,measurement,setting,value
B1,NFAT-GFP ASSAY Positive Cell lines,coculture with L363 cells,"(+/−), L363 (+/−),"
same,NFAT-GFP ASSAY Positive Cell lines,coculture with RAJI cells,"RAJI (+/−), U266"
same,NFAT-GFP ASSAY Positive Cell lines,coculture with U266 cells,"(+/−), L363 (+/−),"
B2,NFAT-GFP ASSAY Positive Cell lines,coculture with L363 cells,"(+/−), L363 (+/−)"
same,NFAT-GFP ASSAY Positive Cell lines,coculture with RAJI cells,"RAJI (+/−), U266"
same,NFAT-GFP ASSAY Positive Cell lines,coculture with U266 cells,"(+/−), L363 (+/−)"
B3,NFAT-GFP ASSAY Positive Cell lines,coculture with HL60 cells,HL60 (+/−)
B4,NFAT-GFP ASSAY Positive Cell lines: L428,"SIR-expressing Jurkat-NFAT-GFP cells cocultured with L428, relative % GFP positive cells",L428 (+/−)
